± gives the uncertainty stated by the source.
Assay: self-splicing fitness, log relative to wild type (ln ratio); higher = more splicing; Tetrahymena group I intron in knt gene, E. coli kanamycin selection, DiMSum; sequences stand for … in CUCUCU…GGAGGGAAAAGUUAUCAGGCAUGCACCUGGUAGCUAGUCUUUAAACCAAUAGAUUGCAUCGGUUUAAAAGGCAAGACCGUCAAAUUGCGGGAAAGGGGUCAACAGCCGUUCAGUACCAAGUCUCAGGGGAAACUUUGAGAUGGCCUUGCAAAGGGUAUGGUAAUAAGCUGACGGACAUGGUCCUAACCACGCAGCCAAGUCCUAAGUCAACAGAUCUUCUGUUGAUAUGGAUGCAGUUCACAGACUAAAUGUCGGUCGGGGAAGAUGUAUUCUUCUCAUAAGAUAUAGUCGGACCUCUCCUUAAUGGGAGCUAGCGGAUGAAGUGAUGCAACACUGGAGCCGCUGGGAACUAAUUUGUAUGCGAAAGUAUAUUGAUUAGUUUUGGAGUACUCGUGGUCG
How it was run: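 Library with all eight P1ex-region intron nucleotides randomised, intron inside the knt kanamycin-resistance gene on pET-22b(+), in E. coli BL21(DE3). Cells grew overnight at 37°C or 30°C on LB agar with or without 25 μg/mL kanamycin (plus 100 μg/mL carbenicillin, 50 μM IPTG, 0.2% rhamnose), in six replicate transformations. Pooled colonies were amplicon-sequenced on Illumina HiSeq 2500. DiMSum fitness is the error-weighted combination of wild-type-normalised replicate fold changes, kanamycin versus none.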

| Sequence | self-splicing fitness (ln) (30 °C) | self-splicing fitness (ln) (37 °C) |
| --- | --- | --- |
| GAGCAGCAAUAUUACGUGCA | -1.15 ± 0.071 | -0.471 ± 0.081 |
| GAGGAGCAAUAUUACGAAAC | -2.22 ± 0.34 | -1.87 ± 0.33 |
| GAGGAGCAAUAUUACGAACC | -2.84 ± 0.42 | -1.19 ± 0.38 |
| GAGGAGCAAUAUUACGACAU | -2.069 ± 0.02 | -1.21 ± 0.036 |
| GAGGAGCAAUAUUACGACCA | -2.57 ± 0.4 | – |
| GAGGAGCAAUAUUACGAUAA | -2.91 ± 0.26 | -1.35 ± 0.33 |
| GAGGAGCAAUAUUACGAUCU | -0.772 ± 0.12 | -0.217 ± 0.12 |
| GAGGAGCAAUAUUACGCCCA | 0.0821 ± 0.26 | -0.507 ± 0.37 |
| GAGGAGCAAUAUUACGCGCG | -2.81 ± 0.28 | -0.781 ± 0.39 |
| GAGGAGCAAUAUUACGGAUC | -1.61 ± 0.16 | -0.13 ± 0.17 |
| GAGGAGCAAUAUUACGGAUU | -3.61 ± 0.18 | -1.95 ± 0.17 |
| GAGGAGCAAUAUUACGGCGC | -1.62 ± 0.34 | -0.697 ± 0.37 |
| GAGGAGCAAUAUUACGUAAC | -1.59 ± 0.19 | -2.72 ± 0.41 |
| GAGGAGCAAUAUUACGUAAU | -3.87 ± 0.22 | -2.54 ± 0.19 |
| GAGGAGCAAUAUUACGUACG | -2.21 ± 0.19 | – |
| GAGGAGCAAUAUUACGUAGG | -2.42 ± 0.42 | -1.27 ± 0.23 |
| GAGGAGCAAUAUUACGUAUC | -4.63 ± 0.42 | -2.74 ± 0.33 |
| GAGGAGCAAUAUUACGUGCG | -2.06 ± 0.15 | -1.39 ± 0.17 |
| GAGUAGCAAUAUUACGACCC | 0.0573 ± 0.39 | – |
| GAGUAGCAAUAUUACGACCG | -3.1 ± 0.39 | -0.977 ± 0.37 |
| GAGUAGCAAUAUUACGAUCU | -1.59 ± 0.18 | -0.479 ± 0.16 |
| GAGUAGCAAUAUUACGCAAU | – | -2.34 ± 0.31 |
| GAGUAGCAAUAUUACGCAUG | -0.973 ± 0.29 | -0.606 ± 0.47 |
| GAGUAGCAAUAUUACGCCAC | -3.64 ± 0.28 | -0.452 ± 0.21 |
| GAGUAGCAAUAUUACGCCAG | -3.3 ± 0.26 | -2.75 ± 0.48 |

| Sequence | self-splicing fitness (ln) (30 °C) | self-splicing fitness (ln) (37 °C) |
| --- | --- | --- |
| GAGUAGCAAUAUUACGCCCA | -1.78 ± 0.39 | -1.39 ± 0.24 |
| GAGUAGCAAUAUUACGCCCU | -0.812 ± 0.24 | -0.124 ± 0.23 |
| GAGUAGCAAUAUUACGCCGA | -1.54 ± 0.17 | -0.774 ± 0.13 |
| GAGUAGCAAUAUUACGCCUG | -1.23 ± 0.13 | -0.972 ± 0.15 |
| GAGUAGCAAUAUUACGGAAG | -3.65 ± 0.23 | -2.71 ± 0.26 |
| GAGUAGCAAUAUUACGGAAU | -2.46 ± 0.31 | -1.32 ± 0.23 |
| GAGUAGCAAUAUUACGGAGA | -2.29 ± 0.37 | -2.12 ± 0.29 |
| GAGUAGCAAUAUUACGGAUG | -1.42 ± 0.17 | – |
| GAGUAGCAAUAUUACGGUAA | -2.23 ± 0.18 | -1.25 ± 0.16 |
| GAGUAGCAAUAUUACGGUGU | -2.71 ± 0.11 | -2.35 ± 0.18 |
| GAGUAGCAAUAUUACGUCCA | -1.32 ± 0.14 | -0.346 ± 0.16 |
| GAGUAGCAAUAUUACGUCCU | 0.0223 ± 0.087 | 0.18 ± 0.15 |
| GAGUAGCAAUAUUACGUGAC | -1.42 ± 0.22 | -1.89 ± 0.39 |
| GAGUAGCAAUAUUACGUUCG | -2.12 ± 0.15 | -0.913 ± 0.15 |
| GAUAAGCAAUAUUACGACCG | -1.01 ± 0.18 | -0.581 ± 0.36 |
| GAUAAGCAAUAUUACGACUU | 0.544 ± 0.08 | 0.0887 ± 0.095 |
| GAUAAGCAAUAUUACGCAUU | -2.5 ± 0.32 | -2.26 ± 0.35 |
| GAUAAGCAAUAUUACGCCUG | -0.902 ± 0.09 | 0.488 ± 0.13 |
| GAUAAGCAAUAUUACGCGCC | -1.76 ± 0.17 | -1.31 ± 0.26 |
| GAUAAGCAAUAUUACGGAAA | -2.35 ± 0.41 | -1.67 ± 0.29 |
| GAUAAGCAAUAUUACGGAGG | -1.43 ± 0.13 | -2.92 ± 0.29 |
| GAUAAGCAAUAUUACGGCAG | -3.5 ± 0.32 | -2.51 ± 0.33 |
| GAUAAGCAAUAUUACGGGCC | -1.48 ± 0.17 | -1.13 ± 0.18 |
| GAUAAGCAAUAUUACGGGGG | -3.65 ± 0.26 | -3.04 ± 0.28 |
